Patent publication US11629364B2, “Methods for synthesizing anticoagulant polysaccharides” (OPTIMVIA, LLC, priority 2019, dated 2023)

Experiment: 6OST activity: 6-O sulfated products detected by LCMS after lyase digestion
Format: biochemical
Details: for 6OST activity: N,2,6-HS products by MS: procedures of Example 4, expected; for 6OST sulfotransferase activity by sulfo group donor: NCS or PNS as sulfo donor, D0S6 and D2S6 disaccharides
Description: A study was conducted in accordance with embodiments of the present disclosure to confirm 6OST activity of enzymes comprising the amino acid sequence of SEQ ID NO: 18, SEQ ID NO: 20, or SEQ ID NO: 22 by detecting the presence of 6-O sulfated polysaccharide products as a result of their sulfotransfer reaction, using a similar LCMS procedure as in Example 3, except that the sulfo acceptor polysaccharide was prepared by chemically 6-O desulfating commercially available heparin (CAS code: 9041-08-1, available from Millipore Sigma), according to the procedure provided by Kariya, Y., et al., (2000) J. Biol. Chem. 275 (34):25949-25958).

| Molecule | 6OST activity: N,2,6-HS products by MS | 6OST sulfotransferase activity by sulfo group donor | relative 6OST activity among engineered enzymes (comparing peak area percentages of D0S6 and D2S6 disaccharides) |
| --- | --- | --- | --- |
| SEQ ID NO: 46: mutant of residues 67-377 of the pig 6OST enzyme, SEQ ID NO: 20 mutations (protein, Amino acid sequence encoding for engineered arylsulfate-dependent 6-O-sulfotransferase variant 7) MKYYFPVRELERSLHFDMKGDDVIVFLHIGHTGGTTFGRHLVQNVRLEVPCDCRPGQKKCTCYRPNRRETWLFSRFSTGWSCGTRADWTELTNCVPGVLDRRDPAALRTPRKFYYITLLRDPVSRYLSHWRHTQRGGANKTGLHMCDGRTPTPEELPPCYEGTDWSGCTLQEFMDCPYNLGNNRQVRMLADLSLVGCYNLSFIPEGKRSQLLLESAKKNLRGMAFFGLTEFQRKTQYLFERTFNLKFIRPFMQYNSTRAGGVEVGEDTIRRIEELNDLDMQLYDYARDLFQQRYQYKRQLERRQQRLRSREE | confirm the presence of N,2,6-HS products | – | – |
| SEQ ID NO: 47: mutant of residues 67-377 of the pig 6OST enzyme, SEQ ID NO: 22 mutations (protein, Amino acid sequence encoding for engineered arylsulfate-dependent 6-O-sulfotransferase variant 8) MKYYFPVRELERSLHFDMKGDDVIVFLHIGHTGGTTFGRHLVQNVRLEVPCDCRPGQKKCTCYRPNRRETWLFSRFSTGWSCGSHADWTELTNCVPGVLDRRDPAALRTPRKFYYITLLRDPVSRYLSGWRHHQRGGANKTSLHMCDGRTPTPEELPPCYEGTDWSGCTLQEFMDCPYNLGNNRQVRMLADLSLVGCYNLSFIPEGKRSQLLLESAKKNLRGMAFFGLTEFQRKTQYLFERTFNLKFIRPFMQYNSTRAGGVEVGEDTIRRIEELNDLDMQLYDYARDLFQQRYQYKRQLERRQQRLRSREE | confirm the presence of N,2,6-HS products | – | – |
| SEQ ID NO: 18: engineered aryl sulfate-dependent 6OST enzyme, mutant of isoform 1 of the mouse 6OST enzyme (protein, Amino acid sequence encoding for engineered arylsulfate-dependent 6-O-sulfotransferase variant 1, engineered aryl sulfate-dependent 6OST enzyme, mutant of isoform 1 of the mouse 6OST enzyme) MKYYFPVRELERSLRFDMKGDDVIVFLHIGHTGGTTFGRHLVQNVRLEVPCDCRPGQKKCTCYRPNRRETWLFSRFSTGWSCGTNADWTELTNCVPGVLDRRDPAGLRSPRKFYYITLLRDPVSRYLGGWRHHQRGGTNKTSLHMCDGRTPTPEELPPCYEGTDWSGCTLQEFMDCPYNLANNRQVRMLADLSLVGCYNLSFIPESKRAQLLLESAKKNLRGMAFFGLTEFQRKTQYLFERTFNLKFIRPFMQYNSTRAGGVEVDEDTIRHIEELNDLDMQLYDYAKDLFQQRYQYKRQLERREQRLRNREE | – | active when NCS was the sulfo group donor | – |
| SEQ ID NO: 45: mutant of residues 67-377 of the pig 6OST enzyme, SEQ ID NO: 18 mutations (protein, Amino acid sequence encoding for engineered arylsulfate-dependent 6-O-sulfotransferase variant 6) MKYYFPVRELERSLHFDMKGDDVIVFLHIGHTGGTTFGRHLVQNVRLEVPCDCRPGQKKCTCYRPNRRETWLFSRFSTGWSCGTNADWTELTNCVPGVLDRRDPAALRTPRKFYYITLLRDPVSRYLGGWRHHQRGGTNKTSLHMCDGRTPTPEELPPCYEGTDWSGCTLQEFMDCPYNLANNRQVRMLADLSLVGCYNLSFIPEGKRSQLLLESAKKNLRGMAFFGLTEFQRKTQYLFERTFNLKFIRPFMQYNSTRAGGVEVGEDTIRRIEELNDLDMQLYDYARDLFQQRYQYKRQLERRQQRLRSREE | confirm the presence of N,2,6-HS products | – | – |
| SEQ ID NO: 22: engineered aryl sulfate-dependent 6OST enzyme, mutant of isoform 1 of the mouse 6OST enzyme (protein, Amino acid sequence encoding for engineered arylsulfate-dependent 6-O-sulfotransferase variant 3, engineered aryl sulfate-dependent 6OST enzyme, mutant of isoform 1 of the mouse 6OST enzyme) MKYYFPVRELERSLRFDMKGDDVIVFLHIGHTGGTTFGRHLVQNVRLEVPCDCRPGQKKCTCYRPNRRETWLFSRFSTGWSCGSHADWTELTNCVPGVLDRRDPAGLRSPRKFYYITLLRDPVSRYLSGWRHHQRGGANKTSLHMCDGRTPTPEELPPCYEGTDWSGCTLQEFMDCPYNLGNNRQVRMLADLSLVGCYNLSFIPESKRAQLLLESAKKNLRGMAFFGLTEFQRKTQYLFERTFNLKFIRPFMQYNSTRAGGVEVDEDTIRHIEELNDLDMQLYDYAKDLFQQRYQYKRQLERREQRLRNREE | – | active when PNS was the sulfo group donor | the most active |
| SEQ ID NO: 20: engineered aryl sulfate-dependent 6OST enzyme, mutant of isoform 1 of the mouse 6OST enzyme (protein, Amino acid sequence encoding for engineered arylsulfate-dependent 6-O-sulfotransferase variant 2, engineered aryl sulfate-dependent 6OST enzyme, mutant of isoform 1 of the mouse 6OST enzyme) MKYYFPVRELERSLRFDMKGDDVIVFLHIGHTGGTTFGRHLVQNVRLEVPCDCRPGQKKCTCYRPNRRETWLFSRFSTGWSCGTRADWTELTNCVPGVLDRRDPAGLRSPRKFYYITLLRDPVSRYLSHWRHTQRGGANKTGLHMCDGRTPTPEELPPCYEGTDWSGCTLQEFMDCPYNLGNNRQVRMLADLSLVGCYNLSFIPESKRAQLLLESAKKNLRGMAFFGLTEFQRKTQYLFERTFNLKFIRPFMQYNSTRAGGVEVDEDTIRHIEELNDLDMQLYDYAKDLFQQRYQYKRQLERREQRLRNREE | – | active when NCS was the sulfo group donor | – |
| SEQ ID NO: 48: mutant of the full-length pig 6OST enzyme, SEQ ID NO: 18 mutations (protein, Amino acid sequence encoding for engineered arylsulfate-dependent 6-O-sulfotransferase variant 9) MRRRRAGSRTMVERASKFVLVVAGSACFMLILYQYAGPGLSLGAPGGRAPPDDLDLFPTPDPHYEKKYYFPVRELERSLHFDMKGDDVIVFLHIGHTGGTTFGRHLVQNVRLEVPCDCRPGQKKCTCYRPNRRETWLFSRFSTGWSCGTNADWTELTNCVPGVLDRRDPAALRTPRKFYYITLLRDPVSRYLGGWRHHQRGGTNKTSLHMCDGRTPTPEELPPCYEGTDWSGCTLQEFMDCPYNLANNRQVRMLADLSLVGCYNLSFIPEGKRSQLLLESAKKNLRGMAFFGLTEFQRKTQYLFERTFNLKFIRPFMQYNSTRAGGVEVGEDTIRRIEELNDLDMQLYDYARDLFQQRYQYKRQLERRQQRLRSREERLLHRAKEAPPRGDTEEPGRVPTEDYMSHIIEKW | confirm the presence of N,2,6-HS products | – | – |
| SEQ ID NO: 50: mutant of the full-length pig 6OST enzyme, SEQ ID NO: 22 mutations (protein, Amino acid sequence encoding for engineered arylsulfate-dependent 6-O-sulfotransferase variant 11) MRRRRAGSRTMVERASKFVLVVAGSACFMLILYQYAGPGLSLGAPGGRAPPDDLDLFPTPDPHYEKKYYFPVRELERSLHFDMKGDDVIVFLHIGHTGGTTFGRHLVQNVRLEVPCDCRPGQKKCTCYRPNRRETWLFSRFSTGWSCGSHADWTELTNCVPGVLDRRDPAALRTPRKFYYITLLRDPVSRYLSGWRHHQRGGANKTSLHMCDGRTPTPEELPPCYEGTDWSGCTLQEFMDCPYNLGNNRQVRMLADLSLVGCYNLSFIPEGKRSQLLLESAKKNLRGMAFFGLTEFQRKTQYLFERTFNLKFIRPFMQYNSTRAGGVEVGEDTIRRIEELNDLDMQLYDYARDLFQQRYQYKRQLERRQQRLRSREERLLHRAKEAPPRGDTEEPGRVPTEDYMSHIIEKW | confirm the presence of N,2,6-HS products | – | – |
| SEQ ID NO: 49: mutant of the full-length pig 6OST enzyme, SEQ ID NO: 20 mutations (protein, Amino acid sequence encoding for engineered arylsulfate-dependent 6-O-sulfotransferase variant 10) MRRRRAGSRTMVERASKFVLVVAGSACFMLILYQYAGPGLSLGAPGGRAPPDDLDLFPTPDPHYEKKYYFPVRELERSLHFDMKGDDVIVFLHIGHTGGTTFGRHLVQNVRLEVPCDCRPGQKKCTCYRPNRRETWLFSRFSTGWSCGTRADWTELTNCVPGVLDRRDPAALRTPRKFYYITLLRDPVSRYLSHWRHTQRGGANKTGLHMCDGRTPTPEELPPCYEGTDWSGCTLQEFMDCPYNLGNNRQVRMLADLSLVGCYNLSFIPEGKRSQLLLESAKKNLRGMAFFGLTEFQRKTQYLFERTFNLKFIRPFMQYNSTRAGGVEVGEDTIRRIEELNDLDMQLYDYARDLFQQRYQYKRQLERRQQRLRSREERLLHRAKEAPPRGDTEEPGRVPTEDYMSHIIEKW | confirm the presence of N,2,6-HS products | – | – |
